Measured values published in US20210101998A1 (Pfizer, published 2021).
Like-named read-outs stand apart in the source and are kept apart here.

T1: rabTFPI K1K2 (rabbit, limits assumed)
T1 construct: also called Rabbit TFPI K1K2; rabbit TFPI
T1 chain: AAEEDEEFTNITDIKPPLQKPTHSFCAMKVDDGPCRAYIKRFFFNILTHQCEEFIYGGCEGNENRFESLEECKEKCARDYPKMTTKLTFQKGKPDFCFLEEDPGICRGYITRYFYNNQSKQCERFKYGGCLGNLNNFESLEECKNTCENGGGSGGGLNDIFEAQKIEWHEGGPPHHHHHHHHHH

T2: murTFPI K1K2 (mouse)
T2 construct: also called Mouse TFPI K1K2; mouse TFPI
T2 chain: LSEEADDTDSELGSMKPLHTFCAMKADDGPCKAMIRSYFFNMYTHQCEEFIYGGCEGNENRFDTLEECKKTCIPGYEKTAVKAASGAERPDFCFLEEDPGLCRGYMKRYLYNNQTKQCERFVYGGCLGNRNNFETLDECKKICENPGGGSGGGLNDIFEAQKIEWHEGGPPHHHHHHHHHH


How the values were obtained:
humTFPI K1K2 [1] = target: T3, humTFPI K1K2 (human); test: SPR, antibody ligand, TFPI analyte
T3 construct: Biotinylated on the AviTag for ELISA; also called Human TFPIα K1K2; humTFPI K1K2-aviHis10
Experimental: The flow cells were activated by injecting a 1:1 mixture of 400 mM 1-Ethyl-3-(3-dimethylaminopropyl) carbodiimide hydrochloride (EDC) and N-hydroxysuccinimide (NHS) for 7 minutes at a flow rate of 10 μl/minute. Anti-human IgG antibody was diluted to 25 μg/ml in 10 mM Sodium Acetate pH 5.0 and injected over all flow cells for 7 minutes at 10 ul/minute. All flow cells were blocked with 1 M Ethanolamine-HCL (ETH) for 7 minutes at 10 μl/minute. Final immobilization level of the capture antibody was approximately 10,000 resonance units (RU). The running buffer for immobilization and kinetics was 10 mM HEPES pH 7.4, 150 mM NaCl, 3 mM EDTA, 0.05% (v/v) Tween-20 (HBS-EP+). […] Flow cell 1 was used as a reference surface. […] At the end of each cycle, the entire anti-IgG surface was regenerated by a 60 second pulse of 3 M MgCl2. Kinetic assays were conducted at 25° C. at a collection rate of 10 Hz on a BIAcore T200 instrument (GE Healthcare). Rate constants and affinities were determined by fitting the data to a 1:1 model in BIAcore T200 Evaluation software version 1.0 (GE).

humTFPI K1K2 [2] = target: T3, humTFPI K1K2; test: ELISA, biotinylated TFPI on streptavidin plate
rabTFPI K1K2 [3] = target: T1, rabTFPI K1K2; test: ELISA, biotinylated TFPI on streptavidin plate
humTFPI K1K2 [4] = target: T3, humTFPI K1K2; test: ELISA, biotinylated TFPI on streptavidin plate; remark: listed apart in the source
Experimental: (§1) Purified anti-TFPI antibodies were diluted to 1 ug/ml in ELISA assay buffer, then serially diluted three-fold to generate an eight-point dilution series. The diluted antibodies were added at a volume of 100 uL per well. The plates were incubated at room temperature for 2 hours. After washing the plates with PBS/0.05% Tween 20, the plates were incubated with a goat anti-mouse IgG-Fc polyclonal antibody conjugated with horseradish peroxidase (Pierce) at 1:10,000 dilution. After 1 hour of incubation, bound antibody was detected with the addition of a TMB substrate solution. Absorbances were read a 450 nm, and the data were analyzed by GraphPad Prism software.

rabTFPI K1K2 [5] = target: T1, rabTFPI K1K2; test: ELISA, biotinylated TFPI on streptavidin plate
Experimental: as §1

humTFPI K1K2 [6] = target: T3, humTFPI K1K2; test: cell-based or functional assay
humTFPI K1K2 [7] = target: T3, humTFPI K1K2; test: SPR, antibody ligand, TFPI analyte; remark: listed apart in the source
rabTFPI K1K2 [8] = target: T1, rabTFPI K1K2; test: SPR, antibody ligand, TFPI analyte
humTFPI K1K2 [9] = target: T3, humTFPI K1K2; test: cell-based or functional assay; remark: listed apart in the source
murTFPI K1K2 = target: T2, murTFPI K1K2; test: SPR, antibody ligand, TFPI analyte
humTFPI K1K2 [10] = target: T3, humTFPI K1K2; test: SPR, antibody ligand, TFPI analyte; remark: listed apart in the source
humTFPI K1K2 [11] = target: T3, humTFPI K1K2; test: cell-based or functional assay; remark: listed apart in the source

Binder	EC50 (humTFPI K1K2 [4])	EC50 (rabTFPI K1K2 [5])	Kd (humTFPI K1K2 [7])	koff (humTFPI K1K2 [7])	kon (humTFPI K1K2 [7])	Kd (rabTFPI K1K2 [8])	koff (rabTFPI K1K2 [8])	kon (rabTFPI K1K2 [8])	FXa EC50 (humTFPI K1K2 [9])	FXa-FVIIa EC50 (humTFPI K1K2 [9])	also measured
4D8-Vk1.0 × VH1.4 (antibody, human IgG1, kappa, V domains shown, Humanized 4D8 variant) VH: EVQLVESGGGLVQPGGSLRLSCAASGYTFTDYNLDWVRQAPGKGLEWVADINPINGATLYNQKFKGRFTISRDQAKNSLYLQMNSLRAEDTAVYYCARYYGDYDAMDYWGQGTLVTVSS VL: DIQMTQSPSSLSASVGDRVTITCKASQDVHTAVAWYQQKPGKAPKLLIYWASTRHTGVPSRFSGSGSGTDFTLTISSLQPEDFATYYCQQHYTTPYTFGQGTKLEIKR	–	–	–	–	–	–	–	–	–	–	Kd (humTFPI K1K2 [1]): 11.1 nM; koff (humTFPI K1K2 [1]): 0.000835 s⁻¹; kon (humTFPI K1K2 [1]): 75500 M⁻¹ s⁻¹; EC50 (humTFPI K1K2 [2]): 0.056 nM; EC50 (rabTFPI K1K2 [3]): 0.0426 nM
4D8-Vk1.1 × VH1.3 (antibody, human IgG1, kappa, V domains shown, Humanized 4D8 variant) VH: EVQLVESGGGLVQPGGSLRLSCAASGYTFTDYNLDWVRQAPGKGLEWVADINPINGATLYNQKFKGRATISRDNAKNSLYLQMNSLRAEDTAVYYCARYYGDYDAMDYWGQGTLVTVSS VL: DIQMTQSPSSLSASVGDRVTITCKASQDVHTAVAWYQQKPGKAPKLLIYWASTRHTGVPSRFSGSGSGTDYTLTISSLQPEDFATYYCQQHYTTPYTFGQGTKLEIKR	–	–	–	–	–	–	–	–	–	–	Kd (humTFPI K1K2 [1]): 0.823 nM; koff (humTFPI K1K2 [1]): 0.000131 s⁻¹; kon (humTFPI K1K2 [1]): 159000 M⁻¹ s⁻¹; EC50 (humTFPI K1K2 [2]): 0.0651 nM; EC50 (rabTFPI K1K2 [3]): 0.0511 nM
4D8.b1 (antibody, mouse IgG1, kappa, Mouse monoclonal antibody purified from a hybridoma subclone; also called mouse 4d8.b1; TFPI 4D8) light: DIVMTQSHKFMSTSVGDRVSITCKASQDVHTAVAWYQQKPGQSPRLLIYWASTRHTGVPDRFTGCGSGTDYTLTISSVQAEDLALYYCQQHYTTPYTFGGGTKLEMKADAAPTVSIFPPSSEQLTSGGASVVCFLNNFYPKDINVKWKIDGSERQNGVLNSWTDQDSKDSTYSMSSTLTLTKDEYERHNSYTCEATHKTSTSPIVKSFNRNEC heavy: EVLLQQSGPELVKPGASVKIPCKASGYTFTDYNLDWVKQSHGKSLEWIGDINPINGATLYNQKFKGKATLTVDQSSSTAYMELRSLTSEDTAVYYCSIYYGDYDAMDYWGQGASVTVSSAKTTPPSVYPLAPGSAAQTNSMVTLGCLVKGYFPEPVTVTWNSGSLSSGVHTFPAVLQSDLYTLSSSVTVPSSTWPSETVTCNVAHPASSTKVDKKIVPRDCGCKPCICTVPEVSSVFIFPPKPKDVLTITLTPKVTCVVVDISKDDPEVQFSWFVDDVEVHTAQTQPREEQFNSTFRSVSELPIMHQDWLNGKEFKCRVNSAAFPAPIEKTISKTKGRPKAPQVYTIPPPKEQMAKDKVSLTCMITDFFPEDITVEWQWNGQPAENYKNTQPIMDTDGSYFVYSKLNVQKSNWEAGNTFTCSVLHEGLHNHHTEKSLSHSPGK	0.0959 nM	0.0976 nM	1.19 nM	0.00114 s⁻¹	958000 M⁻¹ s⁻¹	0.63 nM	0.00126 s⁻¹	2.01e+06 M⁻¹ s⁻¹	5.9 nM	6.67 nM	FXa EC50 (humTFPI K1K2 [6]): 4.15 nM; FXa-FVIIa EC50 (humTFPI K1K2 [6]): 3.5 nM
TFPI-26 (antibody, human IgG1, lambda, V domains shown, Human IgG1-3M from phage display; also called mAb-TFPI-26) VH: not shown VL: QSVLTQPPSLSGAPGQRVTISCTGSSSNLGADYDVQWYQQLPGTAPKLLIFGNNNRPSGVPDRFSGSRSGTSASLAITGLQAEDEANYYCQSYDRSLSGSMVFGGGTKLTVLG	–	–	–	–	–	–	–	–	–	–	Kd (murTFPI K1K2): 3.68 nM; koff (murTFPI K1K2): 0.00476 s⁻¹; kon (murTFPI K1K2): 1.29e+06 M⁻¹ s⁻¹; Kd (humTFPI K1K2 [10]): 5.79 nM; koff (humTFPI K1K2 [10]): 0.00118 s⁻¹; kon (humTFPI K1K2 [10]): 205000 M⁻¹ s⁻¹; FXa EC50 (humTFPI K1K2 [11]): 12.8 nM; FXa-FVIIa EC50 (humTFPI K1K2 [11]): 9.6 nM
6B7.c5 (antibody, mouse IgG1, kappa, V domains shown, Mouse hybridoma antibody; also called mouse 6b7.c5) VH: EVLLQQSGPELVKPGSSVKIPCKASGYTFTDYTMDWVKQSHGKSLEWIGDINPSNGGSIYNRKFKGKATLTVDKSSSTAYMELRSLTSEDTAVYYCARMHYNYDGFPYWGQGTLVTVSA VL: DIVMTQSHKFMSTSVGDRVSITCKASQDVITAVAWYQQKPGQSPKLLIYWASTRHTGVPVRFTGSGSGTDYTLTIISVQAEDLALYYCQQHYSTPYTFGGGTKLEIKA	0.121 nM	0.129 nM	6.58 nM	0.00363 s⁻¹	552000 M⁻¹ s⁻¹	4.95 nM	0.00564 s⁻¹	1.14e+06 M⁻¹ s⁻¹	13.9 nM	12.1 nM	–
7A4.D9 (antibody, mouse IgG1, kappa, V domains shown, Mouse hybridoma antibody; also called mouse 7A4.D9) VH: EVQLQQSGPELVKPGASVKMSCKASGYTFTSYVMHWVKQKPGQGLEWIGYLNPYNDGTKYNEKFKGKASLISDKSSSTVYMELSSLTSEDSAVYYCATTLLYAMDYWGQGSSVTVSS VL: DIVLTQSPASLAVSLGQRATISCRASKSVSTSGYTYMHWYQQKPGQPPKLLIYLASNLESGVPARFSGSGSGTDFTLNIHPVEEEDAAAYYCQHIRELPFTFGSGTKLEIKA	0.0887 nM	0.0887 nM	6.22 nM	0.00921 s⁻¹	1.48e+06 M⁻¹ s⁻¹	3.55 nM	0.0188 s⁻¹	5.3e+06 M⁻¹ s⁻¹	22.3 nM	9.35 nM	–
TFPI-3 (antibody, human IgG1, kappa, V domains shown, Human IgG1-3M from phage display; also called mAb-TFPI-3) VH: not shown VL: AIQLTQSPSSLSASVGDRVTITCRASQGISSSLAWYQQKPGKAPKLLIYAASTLQSGVPSRFSGSGSGTDFTLTISSLQPEDFATYYCQQLDSYPLSFGQGTKLEIKR	–	–	–	–	–	–	–	–	–	–	Kd (murTFPI K1K2): 3.81 nM; koff (murTFPI K1K2): 0.000824 s⁻¹; kon (murTFPI K1K2): 215000 M⁻¹ s⁻¹; Kd (humTFPI K1K2 [10]): 27.1 nM; koff (humTFPI K1K2 [10]): 0.0017 s⁻¹; kon (humTFPI K1K2 [10]): 62500 M⁻¹ s⁻¹; FXa EC50 (humTFPI K1K2 [11]): 208 nM; FXa-FVIIa EC50 (humTFPI K1K2 [11]): 37.4 nM
